{"source": "patent US20180251559A1", "about": "“Methods for the Modulation of LGALS3BP to Treat Systemic Lupus Erythematosus” (Merck Patent GmbH, priority 2015, published 2018)", "molecules": {"B1": {"name": "IFN-γ: interferon used as macrophage stimulus (protein, UniProt P01579 24-161, looked up)", "Interferon gamma": "QDPYVKEAENLKKYFNAGHSDVADNGTLFLGILKNWKEESDRKIMQSQIVSFYFKLFKNFKDDQSIQKSVETIKEDMNVKFFNSNKKKRDDFEKLTNYSVTDLNVQRKAIHELIQVMAELSPAAKTGKRKRSQMLFRG"}, "B2": {"name": "LGALS3BP: secreted scavenger receptor family protein, full length human sequence SEQ ID NO: 1; used as recombinant protein (protein, listed as Homo sapiens)", "chain": "MTPPRLFWVWLLVAGTQGVNDGDMRLADGGATNQGRVEIFYRGQWGTVCDNLWDLTDASVVCRALGFENATQALGRAAFGQGSGPIMLDEVQCTGTEASLADCKSLGWLKSNCRHERDAGVVCTNETRSTHTLDLSRELSEALGQIFDSQRGCDLSISVNVQGEDALGFCGHTVILTANLEAQALWKEPGSNVTMSVDAECVPMVRDLLRYFYSRRIDITLSSVKCFHKLASAYGARQLQGYCASLFAILLPQDPSFQMPLDLYAYAVATGDALLEKLCLQFLAWNFEALTQAEAWPSVPTDLLQLLLPRSDLAVPSELALLKAVDTWSWGERASHEEVEGLVEKIRFPMMLPEELFELQFNLSLYWSHEALFQKKTLQALEFHTVPFQLLARYKGLNLTEDTYKPRIYTSPTWSAFVTDSSWSARKSQLVYQSRRGPLVKYSSDYFQAPSDYRYYPYQSFQTPQHPSFLFQDKRVSWSLVYLPTIQSCWNYGFSCSSDELPVLGLTKSGGSDRTIAYENKALMLCEGLFVADVTDFEGWKAAIPSALDTNSSKSTSSFPCPAGHFNGFRTVIRPFYLTNSSGVD"}}, "format_in_all_cases": "cell-based", "key": {"primary human B cells [1]": {"system": "primary human B cells", "assay": "IgG secretion by stimulated primary human B cells (AlphaLISA)", "settings": "for IC50: pre-incubated 30 minutes, TLR7 agonist for 5 days, AlphaLISA, read-out: IgG production", "protocol": "(§1) A library of conditioned cell culture supernatants with secreted proteins was added and IgG secretion and cell viability (CTG, CellTiter-Glo) measured at the end of culture.\nIgG was measure by AlphaLISA 5 days after stimulation.\nFIG. 3A-1 and FIG. 3A-2 show data from isolated primary human B cells that were stimulated with small molecule TLR7 agonist in the presence of potential LGALS3BP inhibitors and controls (left). Anti-LGALS3BP antibody was added to primary human B cells activated with CpG or anti-IgM/CD40L/CpG (right). IgG secretion was measured 5 days later by AlphaLISA.\n(§2) To identify secreted proteins that affect IgG production by B cells a selection of proteins from the human secretome in an IgG secretion assay were screened using primary human B cells. B cells from healthy volunteers were exposed to 1400 recombinantly expressed secreted proteins before activation with a TLR7 small molecule agonist. After 5 days IgG was measured to identify proteins that enhance or inhibit IgG secretion. […] LGALS3BP was independently identified as the most differentially regulated gene in blood from lupus nephritis patients compared to healthy volunteers.\n(§3) The effect of anti-LGALS3BP antibodies on IgG secretion by primary human B cells was evaluated. IgG secretion by TLR7 activated B cells was inhibited by almost 90% in presence of anti-LGALS3BP antibody or anti-LGALS3BP F(ab′)2 (74%) to exclude inhibition through FcγRIIb present on B cells (FIGS. 3A-1 and 3A-2). […] The same inhibitory effect of the LGALS3BP antibody was observed when B cells were activated with CpG (94%) or anti-IgM/CD40L/CpG (77%). IgM secretion was inhibited by antibody blockade as well excluding a role of LGALS3BP in isotype switching (FIG. 3B-1, FIG. 3B-2 and FIG. 3B-3). […] IL-6 secretion was measured to investigate if LGALS3BP blockade interferes with TLR7 activation and signaling thereby reducing B cell proliferation. A 37% decrease in IL-6 production was observed 48 h after B cell stimulation in the presence of anti-LGALS3BP antibody. This reduction was LGALS3BP specific and not mediated through FcγRIIb given the same effect was measured in the presence of Fc block or with anti-LGALS3BP F(ab′)2. Lactose also had the same effect, thereby, excluding a direct effect of the antibody through cross-linking the surface-bound protein. […] To test if anti-LGALS3BP antibodies reduce B cell survival by blocking B cell activation CD69 upregulation was measured 16 h after activation with TLR7 agonist (FIG. 3C-1, FIG. 3C-2 and FIG. 3C-3). No difference in percentage of CD69^+ activated cells or expression levels of CD69 was observed when an anti-LGALS3BP antibody was added. LGALS3BP blockade inhibits IgG secretion independent of the stimulation protocol used. To determine if LGALS3BP blockade has an effect on B cell survival in the absence of stimulation additional experiments were conducted. Adding the antibody to non-stimulated B cells reduced viability by 66% (FIG. 3D-1 and FIG. 3D-2). This effect was most pronounced in B cells.\n(§4) Primary B cells from healthy human donors were stimulated in the presence of galectin-3 inhibitors in order to determine if galectin-3 plays a role in the function of LGALS3BP in B cell biology. Specifically, freshly isolated B cells from healthy volunteers were pre-incubated with galectin-3 (Gal-3) inhibitors for 30 minutes before stimulation with TLR7 agonist for 5 days. Supernatants were harvested and IgG measured by AlphaLISA. Cell viability was measured by CellTiter-Glo (ATP production)."}, "primary human B cells [2]": {"system": "primary human B cells", "assay": "Viability of TLR7 agonist-stimulated B cells (CellTiter-Glo, ATP)", "settings": "for IC50: pre-incubated 30 minutes, TLR7 agonist for 5 days, CellTiter-Glo", "protocol": "as §1\nB cell viability was measured 5 days later by CellTiter-Glo.\nas §2, §4"}, "primary human B cells [3]": {"system": "primary human B cells", "assay": "IL-6 secretion by TLR7 agonist-activated B cells (AlphaLISA)", "settings": "48 h after B cell stimulation with TLR7 agonist", "protocol": "IL-6 secretion was measured 2 days after stimulation by AlphaLISA.\nas §3, with “F(ab′)2.” for “F(ab′)2. Lactose also had the same effect, thereby, excluding a direct effect of the antibody through cross-linking the surface-bound protein.”, “No difference in percentage of CD69^+ activated cells or expression levels of CD69 was observed when an anti-LGALS3BP antibody was added. LGALS3BP blockade inhibits IgG secretion independent of the stimulation protocol used. To determine if LGALS3BP blockade has an effect on B cell survival in the absence of stimulation additional experiments were conducted. Adding the antibody to non-stimulated B cells reduced viability by 66% (FIG. 3D-1 and FIG. 3D-2). This effect was most pronounced in B cells.” left out"}, "[4]": {"system": "primary human macrophages", "assay": "LGALS3BP induction in in vitro differentiated macrophages (QPCR, ELISA)", "description": "Expression between samples was normalized using HPRT1 as a housekeeping gene. […] LGALS3BP has an IRF binding site consistent with regulation by type I interferons. To determine which pathways can induce LGALS3BP expression, primary human monocytes were differentiated into macrophages in vitro and subsequently were stimulated with IFN-α, IFN-γ, TLR4 agonist (LPS), TLR7/8 agonist (resiquimod) and TLR9 agonist (CpG). […] All stimuli induced secretion of IL-6."}, "primary human B cells [5]": {"system": "primary human B cells", "assay": "B cell activation, CD69 expression by flow cytometry", "settings": "16 h after stimulation with TLR7 agonist", "protocol": "FIG. 2A-1 and FIG. 2A-2 show data from B cells stimulated with small molecule TLR7 agonist in the presence of increasing concentrations of purified recombinant LGALS3BP. B cell activation was measured 16 h later by flow cytometry quantifying CD69 expression.\nTo investigate if addition of LGALS3BP affects activation of naïve B cells CD69 expression was measured 16 h after stimulation with TLR7 agonist. All B cells had increased CD69 expression compared to non-stimulated cells but no change was seen upon addition of various concentrations of recombinant LGALS3BP (FIG. 2A-1 and FIG. 2A-2). The localization of endogenous LGALS3BP in primary human B cells with an antibody specific for LGALS3BP was then evaluated (FIG. 2b). […]\nThe effect of anti-LGALS3BP antibodies on IgG secretion by primary human B cells was evaluated. […] IL-6 secretion was measured to investigate if LGALS3BP blockade interferes with TLR7 activation and signaling thereby reducing B cell proliferation. […] This reduction was LGALS3BP specific and not mediated through FcγRIIb given the same effect was measured in the presence of Fc block or with anti-LGALS3BP F(ab′)2. […] To test if anti-LGALS3BP antibodies reduce B cell survival by blocking B cell activation CD69 upregulation was measured 16 h after activation with TLR7 agonist (FIG. 3C-1, FIG. 3C-2 and FIG. 3C-3). […]"}}}
{"molecule": "CCCO[C@@H]1O[C@H](CO)[C@@H](O[C@@H]2O[C@H](CO)[C@H](O)[C@H](O)[C@H]2O)[C@H](O)[C@H]1O", "note": "[Beta n-propal lactoside, reference compound]", "values": [{"measurement": "IC50", "setting": "primary human B cells [1]", "result": "> 10", "unit": "µM"}, {"measurement": "IC50", "setting": "primary human B cells [2]", "result": "> 10", "unit": "µM"}]}
{"molecule": "CC(=O)N[C@H]1C(O)O[C@H](CO)[C@@H](O[C@@H]2O[C@H](CO)[C@H](O)[C@H](O)[C@H]2O)[C@@H]1O", "note": "(stereo partly drawn) [LacNAc, N-Acetyl-D-lactosamine, N-Acetyl-D-lactosamine, reference compound]", "values": [{"measurement": "IC50", "setting": "primary human B cells [1]; Homo sapiens, B-cell", "result": "> 10", "unit": "µM"}, {"measurement": "IC50", "setting": "primary human B cells [2]; Homo sapiens, B-cell", "result": "> 10", "unit": "µM"}]}
{"molecule": "OC[C@H]1O[C@@H](O[C@H]2[C@H](O)[C@@H](O)C(O)O[C@@H]2CO)[C@H](O)[C@@H](O)[C@H]1O", "note": "(stereo partly drawn) [Lactose, reference compound]", "values": [{"measurement": "inhibition of IgG secretion", "setting": "primary human B cells [1]; TLR7 activated B cells, 5 days", "result": 59, "unit": "%"}, {"measurement": "IL-6 production, effect in words", "setting": "primary human B cells [3]", "result": "same effect"}]}
{"molecule": "OC[C@H]1O[C@@](CO)(O[C@H]2O[C@H](CO)[C@@H](O)[C@H](O)[C@H]2O)[C@@H](O)[C@@H]1O", "note": "[sucrose, reference compound]", "values": [{"measurement": "IgG secretion, effect in words", "setting": "primary human B cells [1]; TLR7 activated B cells", "result": "did not inhibit IgG secretion"}]}
{"molecule": "B1", "values": [{"measurement": "secretion of the LGALS3BP protein", "setting": "[4]; ELISA in supernatants, stimuli for 20 h", "result": "increased secretion"}, {"measurement": "LGALS3BP mRNA expression", "setting": "[4]; QPCR, stimuli for 6 h", "result": "induced"}]}
{"molecule": "B2", "values": [{"measurement": "increase in IgG", "setting": "primary human B cells [1]; purified recombinant protein, B cells stimulated with TLR9 agonist CpG", "result": 1.9, "unit": "fold"}, {"measurement": "enhanced IgG production", "setting": "primary human B cells [1]; purified recombinant protein, TLR7 agonist, B cells from 6 healthy volunteers, 5 days", "result": 1.6, "unit": "fold"}, {"measurement": "increase in IgG", "setting": "primary human B cells [1]; purified recombinant protein, activation cocktail with anti-IgM, CD40L and CpG", "result": 1.2, "unit": "fold"}, {"measurement": "enhanced IgG secretion", "setting": "primary human B cells [1]; secretome screen, recombinantly expressed secreted proteins, TLR7 small molecule agonist, 5 days", "result": 4.1, "unit": "fold"}, {"measurement": "cell viability and metabolic activity (ATP measured by CellTiter-Glo assay)", "setting": "primary human B cells [2]; secretome screen, TLR7 small molecule agonist, 5 days", "result": "doubled"}, {"measurement": "CD69 expression / percentage of CD69+ activated cells", "setting": "primary human B cells [5]", "result": "no change"}]}
